Reference: patent US12201692B2, “Targeted protease compositions and uses related thereto” (Emory University, priority 2013, dated 2025)
“Also recorded” adds a separate entry of the source.

Key:
[1] = Solubility of recombinant ATF fragments; format: physicochemical; conditions: compared to ATF 135 aa
Source text: The amino terminal fragment (ATF, 135 aa) of uPA was used as a target ligand to develop uPAR-targeted theranostic IONPs. The yield and purity of recombinant ATF from bacterial cultures have been less than optimal due to the formation of undesirable aggregates. By removing of the hydrophobic amino acids that promote the formation of aggregates, uPAR targeting ligands (39 and 68 aa) with receptor-binding peptide regions were engineered as improvements.
In comparison with the full length ATF (135 aa), this short uPAR targeted ligand is an improved candidate to engineer the fusion targeting ligand ATF68-MMP14 with dual uPAR targeting and MMP14 protease activity.

[2] = target: uPAR (Homo sapiens, UniProt Q03405); experiment: uPAR-targeting efficiency of ATF fragment; conditions: in comparison with the full length ATF (135 aa)
Sequence of uPAR (Q03405 23-305): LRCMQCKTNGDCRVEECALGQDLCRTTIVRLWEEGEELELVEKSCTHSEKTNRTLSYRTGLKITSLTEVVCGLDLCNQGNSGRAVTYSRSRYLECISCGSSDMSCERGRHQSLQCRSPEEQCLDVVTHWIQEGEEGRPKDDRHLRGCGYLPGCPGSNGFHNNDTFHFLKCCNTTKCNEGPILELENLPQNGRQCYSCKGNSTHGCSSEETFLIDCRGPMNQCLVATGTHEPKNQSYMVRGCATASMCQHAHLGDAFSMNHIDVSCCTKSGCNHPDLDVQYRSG

B1: ATF68: uPA-ATF with only the growth factor domain, 68 aa uPAR targeting ligand (SEQ ID NO:2) (protein)
chain: SNELHQVPSNCDCLNGGTCVSNKYFSNIHWCNCPKKFGGQHCEIDKSKTCYEGNGHFYRGKASTDTMG
solubility [1]: better solubility; also recorded: improved physiological solubility
uPAR-targeting efficiency [2]: higher uPAR-targeting efficiency
